{"source": "patent US12570975B2", "about": "“Composition for diagnosis or treatment of a condition associated with increased activity of EIF4E comprising an EIF4E inhibitor” (SoVarGen Co., Ltd., priority 2019, dated 2026)", "key": {"FMCD animal models": {"test_system": "FMCD animal models", "test": "Metformin treatment of FMCD animal models, video-EEG seizure analysis", "format": "in vivo, mouse", "from_the_text": "In this experiment, metformin was intraperitoneally injected at a dose of […] into the FMCD animal models of Example 1 from P14 to P56 for early treatment and from P84 to P114 for late treatment."}, "[1]": {"test_system": "FMCD and epilepsy animal models (mTOR-p.C1483Y, mTOR-p.L2427P)", "test": "Social avoidance test, FMCD epilepsy models", "format": "in vivo, mouse", "details": "mU6-sheIF4E models compared to mU6-shscramble models", "experimental": "The arena was a black box (400×400 mm).\n(§1) Experiments were performed on the FMCD and epilepsy animal models (mTOR-p.C1483Y, mTOR-p.L2427P) of Example 7-1 and the control normal animal models (mTOR-WT). The same sheIF4E as that described in Example 2 was used. Week 2 after sheIF4E injection, the handling was performed in the animals. Week 3 after sheIF4E injection, the animals were subjected to the behavioral tests.\n(§2) The epilepsy animal models were subjected to the substantially same behavioral abnormality assay as in Example 6. The results are depicted in FIGS. 28 and 29.\n(§3) Briefly, ASO #77 was administered by ICV injection to the FMCD and epilepsy animal models were generated with the pCIG-mTOR mutant-IRES-EGFP of Example 1. ASO #77 was evaluated for therapeutic potential for neuropsychiatric disorder accompanying the FMCD epilepsy animal models in the substantially same manner as in Example 6."}, "[2]": {"test_system": "FMCD and epilepsy animal models (mTOR-p.C1483Y, mTOR-p.L2427P)", "test": "Sucrose preference test, FMCD epilepsy models", "format": "in vivo, mouse", "details": "mU6-sheIF4E models compared to mU6-shscramble models", "experimental": "Each of mice was habituated for 3-5 days in a cage with two selectable water bottles presented. Thereafter, the mice were each placed in the same cage as the habituation cage at the day of experiment. The mice were presented with two dual bottles, one containing tap water and the other containing 1% sucrose solution. Water and sucrose solution intake was measured after 24 hours and sucrose preference was calculated according to volume of sucrose intake/total volume of fluid intake×100%.\nThe same sheIF4E as that described in Example 2 was used. Week 2 after sheIF4E injection, the handling was performed in the animals. Week 3 after sheIF4E injection, the animals were subjected to the behavioral tests.\nThe epilepsy animal models were subjected to the substantially same behavioral abnormality assay as in Example 6.\nas §3"}, "[3]": {"test_system": "FMCD and epilepsy animal models (mTOR-p.C1483Y, mTOR-p.L2427P)", "format": "in vivo, mouse", "experimental": "(§4) Behaviors were recorded and analyzed using EthoVision XT (Noldus).\nas §1, §2, §3"}, "eIF4E [4]": {"test_system": "eIF4E", "test": "Western blot of eIF4E knockdown by sheIF4E in cell lysates (Neuro2A)", "format": "cell-based, mouse", "details": "vs shScramble", "experimental": "The pSicoR vector digested with HpaI and XhoI restriction enzymes was ligated with the shScramble or the sheIF4E sequence in the presence of ligase to construct pSicoR-shScramble and pSicoR-sheIF4E vectors, respectively. Neuro2A cells were cultured and transfected with pSicoR to evaluate the translational downregulation of eIF4E in the same manner as in Example 1.2.\nConstruction of pCIG-MTOR mutant-IRES-GFP; mU6-shScramble or pCIG-MTOR mutant-IRES-GFP; mU6-sheIF4E vector and the inhibitory activity of sheIF4E against eIF4E were identified by western blot analysis using cell lysates."}, "[5]": {"test_system": "FMCD epilepsy animal models", "test": "Cortical dysplasia, neuron size and synaptic spine density in sheIF4E FMCD mice", "format": "in vivo, mouse", "experimental": "Then, mice born following the electroporation of Example 1-6 were analyzed for neuronal cell size and synaptic spine density. Neuronal cell size was measured in ImageJ software (http://rsbweb.nih.gov/ij/). Synaptic spines were counted using a 63× objective lens. Ten basal dendrites were acquired per subject, and measured in electroporated cells expressing a GFP reporter, using manual counting. For neuronal cell size (FIG. 12), mouse brain tissues at postnatal day 21 were acquired and the size of GFP (green)-positive mutant cells (shScramble or sheIF4E expressed) was measured. For synaptic spine density (FIG. 13), mouse brain tissues at postnatal day 21 were acquired and synaptic spines of basal dendrites were counted in GFP (green)-positive mutant cells (shScramble or sheIF4E expressed).\nIn addition, for cortical dysplasia (FIG. 11), mouse brain tissues at postnatal day 7 of Example 2-1 were acquired and distributions of GFP (green)-positive mutant cells (shScramble or sheIF4E expressed) in the cortex were detected (n=5 in each case. Scale bar=100 μm. Mean±SEM)."}, "[6]": {"test_system": "FMCD animal models (mTOR p.C1483Y, mTOR p.L2427P)", "test": "Video seizure monitoring in FMCD animal models with sheIF4E-mediated eIF4E knockdown", "format": "in vivo, mouse", "experimental": "In FMCD animal models, the onset of epilepsy starts at postnatal day 21 on average and has been completed within postnatal day 50. Video EGG monitoring was conducted from 3 weeks after birth. EGG signals were recorded for 12 hours per day three times in a week from postnatal day 21 to postnatal day 120. From the 12-hour video recordings, the number and length of seizures were measured.\nFrom the 12-hours video recordings, the number and length of seizures were measured (FIG. 10)."}, "[7]": {"test_system": "FMCD and epilepsy animal models (mTOR-p.C1483Y, mTOR-p.L2427P)", "test": "Marble burying test, FMCD epilepsy models", "format": "in vivo, mouse", "details": "mU6-sheIF4E models compared to mU6-shscramble models", "experimental": "A mouse was placed in the cage.\nas §1, §2, §3"}, "ADK, IRSp53, and CREB1": {"test_system": "ADK, IRSp53, and CREB1", "test": "Immunostaining for ADK, IRSp53 and CREB1 in sheIF4E FMCD mice", "format": "in vivo, mouse", "details": "mTOR p.Cys1483Tyr and p.Leu2427Pro mice, compared to shScramble mice", "from_the_text": "Therefore, the present inventors performed additional immunostaining in order to investigate in vivo knockdown effect on the expression of ADK, IRSp53, and CREB1 in the FMCD mice, and confirmed significant reduced expression of the genes (FIG. 9e). In the brain tissues at postnatal day 21 from the animal models established using pCIG-MTOR mutant-IRES-GFP; mU6-sheIF4E vector in the same manner as in Examples 1-3 and 3-1, the expression of ADK, IRSp53, and CREB1 was decreased with decreasing of eIF4E expression.\nIn order to examine whether sheIF4E-mediated in-vivo knockdown of eIF4E led to the expression downregulation of eIF4E-sensitive genes, expression of eIF4E-sensitive genes was analyzed by immunofluorescence. The immunofluorescence results are depicted in FIG. 9e. The animal models with the sheIF4E-mediated eIF4E knockdown characteristic and the shScramble mice were substantially the same as in Example 2-1."}, "[8]": {"test_system": "FMCD and epilepsy animal models (mTOR-p.C1483Y, mTOR-p.L2427P)", "test": "Light & dark box test, FMCD epilepsy models", "format": "in vivo, mouse", "details": "mU6-sheIF4E models compared to mU6-shscramble models", "experimental": "as §4, §1, §2, §3"}, "[9]": {"test_system": "FMCD and epilepsy animal models (mTOR-p.C1483Y, mTOR-p.L2427P)", "test": "3-Chamber test (social interaction), FMCD epilepsy models", "format": "in vivo, mouse", "details": "mU6-sheIF4E models compared to mU6-shscramble models", "experimental": "The 3-Chamber test measures social interaction and preference for social novelty. This apparatus consisted of three chambers with dimensions of 12×20×26 cm for the center chamber and dimensions of 14×20×26 cm for the opposite side chambers. Each of the opposite side chambers included a plastic cage (11 cm in diameter, 2.15 cm in height) for an object or stranger mouse in a corner. This experiment consisted of three sessions of habituation (10 min), exploring object/mouse (10 min), and exploring familiar/new mouse (10 min). In the second session, a WT stranger mouse was randomly placed in a plastic cage while the opposite plastic cage was empty. The mouse was allowed to freely explore the whole apparatus. The time spent in each chamber was measured and then used for the subsequent social interaction test. In the last session, a new WT stranger was placed in the empty plastic cage.\nExperiments were performed on the FMCD and epilepsy animal models (mTOR-p.C1483Y, mTOR-p.L2427P) of Example 7-1 and the control normal animal models (mTOR-WT). […]\nas §3"}, "eIF4E [10]": {"test_system": "eIF4E", "test": "Immunostaining for eIF4E in sheIF4E FMCD mice", "format": "in vivo, mouse", "details": "brain tissue at postnatal day 21", "from_the_text": "For the animal model, prepared in Example 2-1, in which eIF4E was knock-downed using sheIF4E, after embryos that had been electroporated with a plasmid carrying an mTOR mutant gene at embryonic day 14 (E14), in the same manner as in U.S. Pat. No. 9,629,346, were born, the mice expressing fluorescence were screened by flashlight (Electron Microscopy Science, USA)."}}}
{"molecule": "CN(C)C(=N)N=C(N)N", "note": "[metformin]", "values": [{"measurement": "seizure onset", "setting": "FMCD animal models; early treatment P14 to P56, intraperitoneal, 200 m/kg", "result": "prevented seizure onset"}, {"measurement": "seizure frequency and duration", "setting": "FMCD animal models; epilepsy animal models, FIGS. 14 and 15", "result": "reduction of seizure frequency and duration"}, {"measurement": "seizure frequency", "setting": "FMCD animal models; late treatment P84 to P114, intraperitoneal, 200 m/kg", "result": "suppressed seizure frequency"}]}
{"molecule": "sheIF4E: shRNA against eIF4E, sense SEQ ID NO: 203 and antisense SEQ ID NO: 204, expressed from mU6 promoter in pCIG-mTOR mutant vector (nucleic acid) sense: TCGATTGATCTCTAAGTTTGATTTCAAGAGAATCAAACTTAGAGATCAATCGTTTTTTCTCGA antisense: TCGAGAAAAAACGATTGATCTCTAAGTTTGATTCTCTTGAAATCAAACTTAGAGATCAATCGA", "values": [{"measurement": "time spent to interact with the stranger mouse (social ability and depression)", "setting": "[1]", "result": "increased"}, {"measurement": "% sucrose preference", "setting": "[2]", "result": "increased"}, {"measurement": "time spent in center (index of anxiety)", "setting": "[3]; mU6-sheIF4E models compared to mU6-shscramble models", "result": "increased"}, {"measurement": "dyskinesia (behavior test)", "setting": "[3]; mouse, in vivo", "result": "no dyskinesia"}, {"measurement": "knockdown of eIF4E by western blot", "setting": "eIF4E [4]", "result": "efficient knockdown"}, {"measurement": "cortical dysplasia", "setting": "[5]; brain tissue at postnatal day 7", "result": "remarkably reduced"}, {"measurement": "defective neuronal migration", "setting": "[5]; mTOR mutant mice", "result": "significantly alleviated"}, {"measurement": "decreased synaptic spine density", "setting": "[5]; postnatal day 21", "result": "rescued"}, {"measurement": "hypertrophic soma (neuronal cell size)", "setting": "[5]; postnatal day 21", "result": "rescued"}, {"measurement": "frequency and time of seizure", "setting": "[6]; FMCD animal models in which epilepsy was generated", "result": "remarkably decreased"}, {"measurement": "spontaneous seizures", "setting": "[6]; FMCD epilepsy mice", "result": "almost completely rescued"}, {"measurement": "animals with seizure", "setting": "[6]; mTOR p.L2427P mutation, video recordings until postnatal day 120", "result": "five of 20"}, {"measurement": "number of buried marbles (repetitive behavior)", "setting": "[7]", "result": "increased"}, {"measurement": "expression of eIF4E sensitive genes ADK, IRSp53, and CREB1", "setting": "ADK, IRSp53, and CREB1", "result": "significantly reduced"}, {"measurement": "time spent in center (residence time within the light box)", "setting": "[8]", "result": "increased"}, {"measurement": "time spent in sniffing zone (social ability)", "setting": "[9]", "result": "increased"}, {"measurement": "eIF4E expression in sheIF4E-expressing neurons (immunostaining)", "setting": "eIF4E [10]", "result": "significantly reduced"}]}
